The supplement of paper PMC12764529
± gives the half width of the 95% confidence interval.

Experiments:
[1] = folding stability dG unfold from trypsin proteolysis; higher = more stable
Procedure, shortened: (§1)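 Designed mini-proteins with no cysteine and under 80 residues were kept only if AlphaFold2 dimer inter-PAE was above 15. In a PA-tagged cDNA display construct, they were digested with trypsin and chymotrypsin and then sequenced. K50 was inferred by Bayesian fitting of counts, and unfolding free energy was derived per protease or combined against a sequence-predicted unfolded-state K50 and a shared folded-state K50.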

[2] = folding stability dG unfold from chymotrypsin proteolysis; higher = more stable
Procedure, shortened: as §1

[3] = folding stability dG unfold (combined trypsin and chymotrypsin); higher = more stable
Procedure, shortened: as §1

Sequence	folding stability dG unfold [1] [kcal/mol]	folding stability dG unfold [2] [kcal/mol]	folding stability dG unfold [3] [kcal/mol]
SMIEELSDEEKVALAKELAEEIKKAREGGKPEEIPELIKRLKEVLEAASPPVQEEVLALIKEIKIPPKELSA [r9_182_JUSTAS]	2.82 ± 0.065	1.7 ± 0.04	2.23 ± 0.076
SAGGSAGGSAGSVTVTLSSDPDKTFTVTLPGGETVTFQPTPTNQVTVTVTSPTTPVTVTVSSAGGSAGGSAG [r3_334_JUSTAS]	1.96 ± 0.074	0.636 ± 0.084	1.43 ± 0.096
SAGGSAGGSAEYIVVNSDEQLKALKELGGVKEVERKENFVVVEFPDIPPELREKLLEVIKESAGGSAGGSAG [r3_398_TrMRF]	-0.0633 ± 0.15	-0.805 ± 0.94	-0.366 ± 0.5
KIVILEPGEEAELPGVKVIPVDGLRIREVEVNGKKILVIEMSEEEIENGNEEELEKLRELAEELGADEVILS [r1_438_TrROS_Hall]	1.13 ± 0.072	1.27 ± 0.062	1.14 ± 0.26
SAGGIRIRFWVPSPEEAREMAETIAKWLMEEHPGAKIKIEPKKVEPNPDNGYYRVEVPIKIVLPGQPISAGG [r13_585_TrROS]	1.36 ± 0.051	1.89 ± 0.057	1.7 ± 0.042
SMKKILIIVPKEMSEEEVEALVKELLEKLGLPEGAEVEILTEEELEKNPELKKKLEEAEKKGADLVIIIPSA [r9_1147_TrROS_Hall]	3.39 ± 0.32	3 ± 0.2	3.12 ± 0.32
SAGGSAGGSAGGLVEQAVRAIREAKKAGLKEVVIYLSEEQKEAVKEAAEKEGLKVKIVPESAGGSAGGSAGG [r11_371_TrROS_Hall]	0.244 ± 0.048	0.814 ± 0.021	0.589 ± 0.086
SAGGSAGGSAGGSGVLNIDEVWEDPESDLYTVVTTGEDEGTRVFVFDKNGKLLAEADLPSAGGSAGGSAGGS [r4_259_TrMRF]	0.274 ± 0.034	0.405 ± 0.12	0.443 ± 0.1
PPPDVPVETETKTSTSTLPDGSRLTTTTTTTRAPNGYYYDTTSVTTTVAPDGTVTTTSTSTTKGPLPAALLS [r1_129_JUSTAS]	1.81 ± 0.12	1.51 ± 0.072	1.5 ± 0.27
SAGGSGKKVKIKINIVVVFPPGDPDLAKEIAKWFARTIARELQAQGFEDIKDIEIRVHVIPPNQPGFSAGGS [r16_289_TrROS]	3.11 ± 0.094	3.604 ± 0.035	3.44 ± 0.12
EAFEKAIEAAIEAAEKGEKETEITLPLPDGKAIRVHATVEVKDGKPVRVDIHVELYGPNNVPYPFTLTITAS [r1_254_TrMRF]	2.37 ± 0.13	2.83 ± 0.13	2.38 ± 0.18
SAGGSAGGKAKIKKIEVELNEDGTLKVTAYDEETNEKITLEVKLPKPKPVYFDEEKLKEELEKKSAGGSAGG [r6_627_TrROS_Hall]	-0.313 ± 0.19	0.963 ± 0.14	0.629 ± 0.19
SAGITLHPDARIILKNPSTGEKIELRSETIRRLIAEILGTDRPEEITAEQINAFALSLGFEEAEFEEPSAGG [r19_67_TrMRF]	2.29 ± 0.031	3.312 ± 0.011	3.02 ± 0.045
SHTTTEPATGVTVEVVPSPDGTHVVTVKKPGGEVVKTVTVPSGPRPPGSTTPLTVALTDLPPDVETSVDLSS [r1_263_JUSTAS]	0.416 ± 0.067	0.141 ± 0.077	0.232 ± 0.2
SAGTVSSSFDPATGTLTITRTTSPDETVDLTLNVEVPETPATVAKVDSGGPVEGDEPVTITVELTDLKPSAG [r5_737_JUSTAS]	0.222 ± 0.075	-0.522 ± 0.42	-0.152 ± 0.24
SAGGMSVSITVTVTPTEVRVVENPTNGVNTAFTETTVTVTVNHPSSVSPEEKAALIAAVKAANPGAASAGGS [r8_306_JUSTAS]	2.86 ± 0.57	1.92 ± 0.57	2.43 ± 0.49
SAGWYIKIKIEYPGDGQKKLEVPIPIPSPEEAKEFADEIADMLAEQNGGNIKIEVEVFRLPPVPPEDQGSAG [r5_87_TrROS]	0.544 ± 0.11	2.2 ± 0.15	1.82 ± 0.21
SAGGSAGGGPDPSLPPPEVIEVVLPPDTLFRPPGGGYLSPEEVVELAKELEEREGIKATVTIRPSAGGSAGG [r6_162_JUSTAS]	1 ± 0.09	0.588 ± 0.095	0.823 ± 0.15
SAGGSAGGSMIIRIKTENGEEIEIEAESEEEAKKAAEELKKELEEKGYKIEEVEIYEIPEEELSAGGSAGGS [r12_301_TrROS_Hall]	1.13 ± 0.076	2.32 ± 0.13	2.05 ± 0.26
SAGMKITISYDEAKGIATVTLYEERPVETPNGPVTLRRKVATVTIPYTSLEEAKKQAEEAAKALLEKLSSAG [r5_956_JUSTAS]	5.11 ± 0.14	5.036 ± 0.033	5.06 ± 0.084
SAGGSAGGSSMLTITKTYTLPPEEIKKIEGKPGVLKVEPFVTPEGKLVVKVEIRLEIGPEKLLLSAGGSAGG [r6_155_JUSTAS]	0.738 ± 0.11	1.11 ± 0.22	0.914 ± 0.11

Sequence	folding stability dG unfold [1] [kcal/mol]	folding stability dG unfold [2] [kcal/mol]	folding stability dG unfold [3] [kcal/mol]
SAGGSAGGSFFIRVEYPKGKTRTYPIKNGPIEEALEQLPPGWDNVKVSIYNGNKPVEFEIPLPSAGGSAGGS [r12_767_TrROS]	0.389 ± 0.13	1.1 ± 0.074	0.806 ± 0.091
SAGGSAGGMKVTLTPVSGEKYEIEVESEEEAKEKVEKLAKKLGIPGEVKVTIEKGDKTYELTIISAGGSAGG [r6_532_JUSTAS]	2.98 ± 0.2	2.5 ± 0.11	2.39 ± 0.42
SAPIDIDLERDPEPGRLKATVEFPWPNGWMHRMTFDLQWPRIKVEHYPFKDGEPEPQEIEIPIPANAKVSAG [r14_64_TrROS]	0.0882 ± 0.17	0.426 ± 0.24	0.338 ± 0.19
SAGGSAGGSAGGENPEYKPKLLVLVKLEVNGEYYYREFETLEELENYNDPNLKVVAVADLSAGGSAGGSAGG [r7_793_TrMRF]	1.27 ± 0.033	0.653 ± 0.11	1.02 ± 0.083
SAGGSAGGSMEVTVTPLPDGSLLVTVTVTTSSTPVPVELRFPPSASLEEIRAAAEARAAEVAASAGGSAGGS [r12_69_JUSTAS]	0.883 ± 0.029	1.73 ± 0.025	1.57 ± 0.047
SAGGLTWEEAREIAEEIANMEVPSPNGMPMKVKVDIEIDPPNGYFRVDVKVEMPGKPQKFPLEIPLKSAGGS [r16_812_TrROS]	0.607 ± 0.16	0.536 ± 0.17	0.673 ± 0.25
SAGGSAGGSMLVLKVEVKIEVEEREVIGPDGKIKKEKKIKIEIKIELFELPPLTEEELKKLKESAGGSAGGS [r12_1060_TrROS_Hall]	2.73 ± 0.27	4.14 ± 0.21	3.6 ± 0.72
SAGGMSEEVRKLAEELAKKLNIEKVEVLPDGTVRITLKNGKKIEIKVEKVEVKEVKVEVEVEEVEEESAGGS [r16_296_TrROS_Hall]	2.55 ± 0.27	4.11 ± 0.28	3.62 ± 0.49
SAGGLNINLPPGQEIELTLQVTHLFNGGNGDFGSMTHTYEIPIKIKPIPPVPKPEVERDPDGNYKVEDSAGG [r13_401_TrROS]	-0.0612 ± 0.076	0.358 ± 0.26	0.296 ± 0.28
SAGGSAGGSAGGMTITIKVPPNMTEEQLRELARELARKLGLEDVEVRIERREDGTVRITFSAGGSAGGSAGG [r7_810_TrROS_Hall]	4.91 ± 0.2	4.83 ± 0.12	4.85 ± 0.15
SAGGSMKIKVEYEELPNGKMVIRIDIPPEENNMTPEQVETIAKEIAEEFPNVKVETTPGSIWIRVPSAGGSA [r2_256_TrROS]	1.38 ± 0.1	1.21 ± 0.2	1.24 ± 0.16
SAGGSAGGGSMSMPVTTKLVEEYTFPGTKEEAEEFLKKKLPPNYQVEITETPDSIKVKVYKVEGSAGGSAGG [r6_953_JUSTAS]	2.31 ± 0.053	2.36 ± 0.042	2.38 ± 0.057
SAGGSAGGMTFVDLGEDKPVVIEVPPRPETGLYPVVIHPPEKPVFVEVESPEEAIEAAEKLVEGSAGGSAGG [r6_715_TrMRF]	1.42 ± 0.051	0.788 ± 0.045	1.12 ± 0.045
SAGKKVTILIVVPETEEEAKKLAEELAKELAEKTGLEKVEVKVVPKGMTLEQLKELAKENNVDLVILVSAGG [r19_89_TrROS_Hall]	3.24 ± 0.21	3.09 ± 0.15	3.17 ± 0.24
SAGGPTAPAGGPLLAPVPVVVPVPVTLTFPNLTPEQAEALAEYFRSLGAEVSYDSATGTLTVRDYRTSAGGS [r16_765_TrMRF]	2.28 ± 0.061	3.894 ± 0.014	3.587 ± 0.033
SAGGSAGGMEPLTRVTVELELPGGETRVVEGDDLEAVKERLKEELGLPDLVVKSVKTTPLPALESAGGSAGG [r6_406_JUSTAS]	0.6 ± 0.045	0.974 ± 0.027	0.857 ± 0.077
SAGGSAGGSATKTIKVKNADGETVELTVEKREDGSYKITLTFPDGTKKTFTIKPGEKIVIKPSAGGSAGGSA [r18_115_TrROS_Hall]	2.42 ± 0.11	4.24 ± 0.098	3.9 ± 0.12
SGPTVTYKVPYTRDVAVPTVKIGAKVTTTTTVTKLPNGTLASTSTSADVELTLNLPPDTPLSPNYLSTGGSA [r9_277_JUSTAS]	-0.0817 ± 0.21	-0.175 ± 0.38	-0.0833 ± 0.2
SAEKTLTIPITLENGATLTITVYEDRIEATLEVDGLTGTGYTLPDGTVVLNLRAPGNKPIASPVFTLDLSAG [r14_213_TrMRF]	1.73 ± 0.058	2.48 ± 0.06	2.31 ± 0.12
SAGAPLEVPGPLVTVTEEEVPGKPLVFIPTPDGLIVVDLVTGKAERYPLYSEEPIVLDVPPGVVIELPSAGG [r19_138_JUSTAS]	1.02 ± 0.073	0.398 ± 0.13	0.819 ± 0.077
SGISNEEIKKILEEIAKEYPGLKIEIKPGTEPSVAKGPKAVVTLTRKPGYLEITITFPETGETTTIPIPPSA [r9_1062_JUSTAS]	2.51 ± 0.072	2.721 ± 0.02	2.64 ± 0.043
